Measurements as given in patent publication US20020006903A1.

Columns and labels:
[1] = target: T cell receptor of 2C cytotoxic T lymphocytes; assay: flow cytometry on 2C T cells, actively loaded complex at 0.1 nM
[2] = target: T cell receptor of 2C cytotoxic T lymphocytes; assay: flow cytometry on 2C T cells, passively loaded complex
[3] = target: T cell receptor of 2C cytotoxic T lymphocytes; assay: cell-based or functional assay
[4] = target: T cell receptor of 2C cytotoxic T lymphocytes; assay: flow cytometry on 2C T cells, varying concentrations of complex
[5] = target: T cell receptor of 2C cytotoxic T lymphocytes; assay: flow cytometry on 2C T cells, actively against passively loaded complex
[6] = target: T cell receptor of 2C cytotoxic T lymphocytes; assay: flow cytometry on 2C T cells, actively loaded complex, half maximal staining
[7] = target: T cell receptor of 2C cytotoxic T lymphocytes; assay: flow cytometry on 2C T cells, actively loaded complex
[8] = target: T cell receptor of 2C cytotoxic T lymphocytes; assay: flow cytometry on 2C T cells, passively loaded complex, half maximal staining

Chain of QL9 peptide-loaded H-2 L^d/Ig complex (P01897 25-309, one chain of several): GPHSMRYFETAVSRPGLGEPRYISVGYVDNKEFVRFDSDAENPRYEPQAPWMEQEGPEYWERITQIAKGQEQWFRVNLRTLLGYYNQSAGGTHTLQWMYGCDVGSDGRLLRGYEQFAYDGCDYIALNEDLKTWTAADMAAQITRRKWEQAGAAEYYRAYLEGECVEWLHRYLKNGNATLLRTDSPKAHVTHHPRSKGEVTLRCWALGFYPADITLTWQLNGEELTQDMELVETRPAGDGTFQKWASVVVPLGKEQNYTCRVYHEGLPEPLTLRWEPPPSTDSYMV
Chain of SIY peptide-loaded H-2 K^b/Ig complex (P01901 22-305, one chain of several): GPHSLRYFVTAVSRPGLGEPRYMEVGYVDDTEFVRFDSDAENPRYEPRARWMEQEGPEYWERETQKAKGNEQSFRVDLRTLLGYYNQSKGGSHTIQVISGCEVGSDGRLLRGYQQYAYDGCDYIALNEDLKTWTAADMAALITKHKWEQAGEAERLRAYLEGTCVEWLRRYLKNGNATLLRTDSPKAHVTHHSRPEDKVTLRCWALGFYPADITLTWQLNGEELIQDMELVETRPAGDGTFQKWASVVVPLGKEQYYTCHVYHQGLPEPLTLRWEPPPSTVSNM

Substance | mean channel fluorescence (MCF) at 0.1 nM [1] | concentration required for staining [2] [nM] | 2C CTL mediated lysis of target cells (specific lysis) [3] [%] | concentration of maximal inhibition of proliferation of 2C CTL stimulated by allogeneic splenic cells [3] [nM] | half maximal inhibition of proliferation of 2C CTL [3] [nM] | stimulation index of 2C CTL proliferation ([3H]thymidine) [3] | EC50 [4] [nM] | fold more effective in staining than the “passively” loaded complex [5] [fold] | EC50 [6] [nM] | lowest concentration at which staining was seen [7] [nM] | EC50 [8] [nM] | half maximal inhibition of target cell lysis by 2C CTL [3] [nM] | target cell lysis by 2C CTL (percent specific lysis, chromium release) [3] [%]
SIY peptide-loaded H-2 K^b/Ig complex (from UniProt P01901 22-305) (peptide-MHC) | 53 | 10 | 35 | 20 | 1 | 10 | 1 | 10 to 100 | 1 | 0.1 | 10 |  | 
QL9 peptide-loaded H-2 L^d/Ig complex (from UniProt P01897 25-309) (peptide-MHC) |  |  |  |  |  |  | 1 |  |  |  |  | 10 | 2
